Data from IntAct's records for PubMed 23386062.

What was measured:
[1] = biological target: nisch_human NISCH (UniProt Q9Y2I1)
[2] = biological target: nisch_human NISCH (UniProt Q9Y2I1); remark: listed apart in the source
[3] = biological target: nisch_human NISCH (UniProt Q9Y2I1); remark: listed apart in the source
[4] = biological target: nisch_human NISCH (UniProt Q9Y2I1); remark: listed apart in the source

UniProt Q9Y2I1, sequence (Q9Y2I1 whole entry): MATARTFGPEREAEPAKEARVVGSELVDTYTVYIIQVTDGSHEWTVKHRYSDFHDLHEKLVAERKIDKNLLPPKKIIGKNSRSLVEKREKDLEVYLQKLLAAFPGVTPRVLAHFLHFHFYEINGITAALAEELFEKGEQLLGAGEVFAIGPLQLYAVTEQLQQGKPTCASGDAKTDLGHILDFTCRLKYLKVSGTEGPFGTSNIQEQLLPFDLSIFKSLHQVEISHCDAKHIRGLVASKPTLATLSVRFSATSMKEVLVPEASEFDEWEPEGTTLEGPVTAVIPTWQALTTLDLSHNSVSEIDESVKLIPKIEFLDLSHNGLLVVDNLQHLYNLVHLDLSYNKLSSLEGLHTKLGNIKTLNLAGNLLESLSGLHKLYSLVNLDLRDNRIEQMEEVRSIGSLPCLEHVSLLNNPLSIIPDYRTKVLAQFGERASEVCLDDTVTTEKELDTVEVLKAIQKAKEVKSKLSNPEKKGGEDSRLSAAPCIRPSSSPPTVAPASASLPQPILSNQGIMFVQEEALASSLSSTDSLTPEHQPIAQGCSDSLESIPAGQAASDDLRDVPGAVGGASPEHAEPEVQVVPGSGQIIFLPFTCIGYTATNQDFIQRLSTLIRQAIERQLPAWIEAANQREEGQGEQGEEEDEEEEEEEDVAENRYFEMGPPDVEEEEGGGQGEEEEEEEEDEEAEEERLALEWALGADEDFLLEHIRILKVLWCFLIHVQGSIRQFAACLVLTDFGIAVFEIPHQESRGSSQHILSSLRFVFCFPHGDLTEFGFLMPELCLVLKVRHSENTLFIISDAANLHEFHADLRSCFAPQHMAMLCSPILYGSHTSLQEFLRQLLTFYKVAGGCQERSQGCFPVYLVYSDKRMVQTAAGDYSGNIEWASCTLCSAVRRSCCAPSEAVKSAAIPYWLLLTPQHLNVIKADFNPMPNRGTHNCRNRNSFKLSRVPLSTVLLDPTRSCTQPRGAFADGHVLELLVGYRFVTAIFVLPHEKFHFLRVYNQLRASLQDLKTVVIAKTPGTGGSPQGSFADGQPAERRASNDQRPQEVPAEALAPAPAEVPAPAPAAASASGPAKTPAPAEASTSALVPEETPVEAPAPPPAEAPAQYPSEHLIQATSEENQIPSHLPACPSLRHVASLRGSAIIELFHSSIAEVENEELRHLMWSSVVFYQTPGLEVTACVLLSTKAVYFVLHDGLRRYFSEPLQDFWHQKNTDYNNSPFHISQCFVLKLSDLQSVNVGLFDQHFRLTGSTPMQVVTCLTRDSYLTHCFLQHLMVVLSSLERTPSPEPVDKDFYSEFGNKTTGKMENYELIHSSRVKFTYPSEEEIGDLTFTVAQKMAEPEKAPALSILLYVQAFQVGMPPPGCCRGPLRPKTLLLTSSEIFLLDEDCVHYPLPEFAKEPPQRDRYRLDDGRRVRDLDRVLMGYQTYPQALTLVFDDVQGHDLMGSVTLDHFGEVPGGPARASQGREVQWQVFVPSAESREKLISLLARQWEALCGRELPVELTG

Substance: Ras-related protein Rab-14 (Rattus norvegicus (Rat)) (from UniProt P61107) N124I
- effect of a mutation on the interaction [1]: decreasing interaction

Substance: Ras-related protein Rab-14 (Rattus norvegicus (Rat)) (from UniProt P61107) Q70L
- effect of a mutation on the interaction [2]: increasing interaction

Substance: Ras-related protein Rab-14 (Rattus norvegicus (Rat)) (from UniProt P61107) S25N
- effect of a mutation on the interaction [3]: disrupting interaction
- effect of a mutation on the interaction [4]: decreasing interaction
